Consider six molecules from US20150210767A1 (GlaxoSmithKline, published 2015).

T1: human TNFR1 on human umbilical vein endothelial cells (HUVECs) (human, UniProt P19438 30-455)
T1 sequence (looked up): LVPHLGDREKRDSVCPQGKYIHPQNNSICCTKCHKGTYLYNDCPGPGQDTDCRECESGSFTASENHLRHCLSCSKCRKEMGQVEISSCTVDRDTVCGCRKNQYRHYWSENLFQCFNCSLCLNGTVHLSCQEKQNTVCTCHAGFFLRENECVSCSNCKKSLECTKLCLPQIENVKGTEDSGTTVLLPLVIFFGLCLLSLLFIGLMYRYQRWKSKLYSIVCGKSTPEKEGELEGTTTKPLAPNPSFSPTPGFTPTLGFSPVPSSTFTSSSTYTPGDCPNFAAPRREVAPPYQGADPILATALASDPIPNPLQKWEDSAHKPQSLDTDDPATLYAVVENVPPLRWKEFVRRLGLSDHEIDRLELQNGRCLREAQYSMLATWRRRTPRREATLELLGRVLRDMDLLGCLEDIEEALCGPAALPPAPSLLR

T2: biotinylated recombinant human soluble TNFR1 (human, UniProt P19438 30-211, biotinylated (EZ-Link Sulfo-NHS-LC-Biotin), sites not stated)
T2 construct: extracellular domain; Captured on a streptavidin BIAcore chip; also called human sTNFR1; sTNFR1
T2 sequence (looked up): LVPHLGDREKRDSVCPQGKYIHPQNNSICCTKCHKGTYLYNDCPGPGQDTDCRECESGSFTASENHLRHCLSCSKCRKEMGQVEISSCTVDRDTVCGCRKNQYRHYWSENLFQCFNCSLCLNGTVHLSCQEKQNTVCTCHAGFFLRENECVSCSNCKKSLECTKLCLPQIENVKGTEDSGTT

B1: DMS5544 (bispecific antibody)
chain: EVQLLESGGGLVQPGGSLRLSCAASGFTFDKYSMGWVRQAPGKGLEWVSQISDTADRTYYAHSVKGRFTISRDNSKNTLYLQMNSLRAEDTAVYYCAIYTGRWVPFEYWGQGTLVTVSSASTDIQMTQSPSSLSASVGDRVTITCRASRPIGTTLSWYQQKPGKAPKLLILWNSRLQSGVPSRFSGSGSGTDFTLTISSLQPEDFATYYCAQAGTHPTTFGQGTKVEIKR
notes: Single-chain genetic fusion of the anti-TNFR1 VH dAb DOM1h-574-188, linker AST and the anti-serum albumin Vk dAb DOM7h-11-3; also called DOM1h-574-188 - Ala-Ser-Thr - DOM7h-11-3; anti-TNFR1/AlbudAb fusion
B2: DMS5535 (bispecific antibody)
chain: B1 chain with D30S, V104E
notes: Single-chain genetic fusion of the anti-TNFR1 VH dAb DOM1h-574-196, linker AST and the anti-serum albumin Vk dAb DOM7h-11-3; also called DOM1h-574-196 - Ala-Ser-Thr - DOM7h-11-3; anti-TNFR1/AlbudAb fusion
B3: DMS5542 (bispecific antibody)
chain: B1 chain with D30S, H62D
notes: Single-chain genetic fusion of the anti-TNFR1 VH dAb DOM1h-574-214, linker AST and the anti-serum albumin Vk dAb DOM7h-11-3; also called DOM1h-574-214 - Ala-Ser-Thr - DOM7h-11-3; anti-TNFR1/AlbudAb fusion
B4: DOM1h-574-188 (VHH)
VHH: EVQLLESGGGLVQPGGSLRLSCAASGFTFDKYSMGWVRQAPGKGLEWVSQISDTADRTYYAHSVKGRFTISRDNSKNTLYLQMNSLRAEDTAVYYCAIYTGRWVPFEYWGQGTLVTVSS
notes: Human VH immunoglobulin single variable domain (dAb), not camelid; also called anti-TNFR1 dAb DOM1h-574-188
B5: DOM1h-574-214 (VHH)
VHH: B4 VHH with D30S, H62D
notes: Human VH immunoglobulin single variable domain (dAb), not camelid; Monomer cloned in pDOM13 for expression in E. coli; also called anti-TNFR1 dAb DOM1h-574-214
B6: DOM1h-574-196 (VHH)
VHH: B4 VHH with D30S, V104E
notes: Human VH immunoglobulin single variable domain (dAb), not camelid; Monomer cloned in pDOM13 for expression in E. coli; also called anti-TNFR1 dAb DOM1h-574-196

Where a chain is given by its changes, count along the chain named.

For the first assay, the target named is T1, human TNFR1 on human umbilical vein …. Put plainly: cell-based or functional assay.
As to B1, the “Mean EC50, inhibition of TNF-alpha-induced VCAM-1 expression in the HUVEC cell assay” value (from here on “Mean EC50, inhibition”) was 4.83 nM.

Regarding B2, the “Mean EC50, inhibition” value is 5.79 nM.

B3: the “Mean EC50, inhibition” value is 6.23 nM.

The target of a further assay is T2, biotinylated recombinant human soluble …. As to the kind of experiment: BIAcore (SPR), biotinylated human sTNFR1 on SA chip, dAb injected. How it is done:
(§1) To confirm the increase in accelerated stability four novel dAbs were also characterised according to the more extensive protocol described in example 1. In this protocol, the dAbs are incubated up to 48 h at 40° C., centrifuged and the remaining dAb in solution quantified using OD₂₈₀. […] To verify that the increase in stability is not at the expense of functional anti-TNFR1 activity of the dAb, the binding affinity to TNFR1 of the dAbs was determined by BIAcore, using biotinylated TNFR1 captured on a BIAcore SA chip. […] Therefore, these dAbs combine an increase in accelerated stability without compromising much on the affinity of the dAb for TNFR1.
TABLE 7 Accelerated stability and affinity for human sTNFR1 for novel anti-TNFR1 dAbs. Purified dAb was incubated at 1 mg/ml in PBS at 40° C. for the indicated amounts of time. After that time, the percentage of residual protein in solution was determined by OD280 determination. Affinity for sTNFR1 was determined by BIAcore using coated sTNFR1 and injecting the dAb as described.
In general terms: SPR reads the build-up and loss of mass on a sensor chip optically.
The Kd is the equilibrium constant for the complex coming apart. On to B4, for which the Kd was 0.35 nM.

For B5, the Kd came to 0.58 nM.

Regarding B6, the equilibrium dissociation constant (Kd) worked out at 0.47 nM.

The target is the same in another assay. Put plainly: BIAcore (SPR), biotinylated TNFR1 on SA chip; reference value of DOM1h-574-156 (150 pM) described previously. On the procedure: as §1
For B4, the “fold change of affinity against the parent dAb DOM1h-574-156” value (“fold change of affinity” below) was not above 4 fold.

For the molecule B5, the “fold change of affinity” value was not above 4 fold.

Regarding B6, the “fold change of affinity” value was not above 4 fold.

The target is the same in the next assay. Put plainly: BIAcore (SPR), biotinylated human TNFR1 on streptavidin chip, fusion injected, mean of two experiments ± SD. How it is done: The affinity of the anti-TNFR1/AlbudAb fusions for human TNFR1 was determined by BIAcore. Briefly, the anti-TNFR1 molecules were injected over a streptavidin BIAcore chip on which biotinylated, human TNFR1 had been immobilised. Association and dissociation were determined at different concentrations of injected anti-TNFR1. […] The affinity for human TNFR1 as determined by BIAcore of the anti-TNFR1/AlbudAb fusion is slightly higher to that determined for the single anti-TNFR1 dAb used in each of the combination constructs.
The binding affinities for binding to recombinant human TNFR1 were assessed by BIAcore™ analysis. Analysis was carried out using Streptavidin coated (SA) chips (BIAcore, cat no. BR-1000-32). An SA chip was coated at low density using biotinylated hTNFR1. Examined molecules were injected over this surface at […] concentrations, i.e. 32, 16 (twice), 8, 4, 2, 1 and 0.5 nM, in random order using a flow rate of 50 μl/min. Between individual injections the surface was regenerated back to baseline using 10 mM glycine pH 2.0. Data were corrected for instrument artefacts using double referencing. Experiments were carried out on a BIAcore™ 3000 machine and data were analysed using the BIAevaluation software version 4.1, kₒₙ and koff were simultaneously fitted using 1:1 Langmuir binding model. For fitting purposes, the concentration range 1-32 nM was used for the monomers, while 0.5-16 nM was used for the AlbudAb fusion molecules. The binding data fitted well to the 1:1 model for all tested molecules. All KD values were calculated from kₒₙ and koff rates. BIAcore™ runs were carried out at 25° C.
Consider B1, for which the Kd worked out at 0.18 nM.

Take B2: the Kd turned out to be 0.277 nM.

Regarding B3, the Kd stood at 0.202 nM.
